The data set in a line: soluble on expression in E. coli; label from the status in PepcDB or PDB records.
In the case of “LMKLYSLSVFYKGEPKAVLLKAAYDVSSFSFFQRSSVQEFMTFTSQLIVERSAKGSRASVKEQEYLCHVYVRSDSLAGVVIADSEYPSRVAFTLLEKVLDEFSKQVDRIDWPVGSPATIHYTALDGHLSRYQNPREADPMSKVQAELDETKIILHNTMESLLERGEKLDDLVSKSEVLGTQSKAFYKTARKQNSCCAIM”, the “soluble on expression in E. coli” value was “soluble”. The same measure for “MGSDKIHHHHHHMATENKIKYFENREDWRKWLMDNFETEDEIWFVFPLKSSGEKSIAYNDAVEEALCFEWIDSTIKPLDKEHRIQRFTPRKPKSTYSQANKERLKWLLANKMIHPEFEDKIRTVLSDPFIFPNDIMDRLKEDEIAWRNYRHFSDAYKRIRIAYIEAARKRPEEFEKRLNNFICKVKENKMITGFGGIEKYY”: “not soluble”; for “STTEEESLSAAEEGYNVQRDYWRQAEESDGFDIENIKLPPGMHGRVMGLITYNCQLCYRYPFPVLVKLYAKFGLHRYNLIKGTSFELAALMKFNMLQNYMSSFYMTLLAHDPDPAASSSQKTFQVRVDEQQFGTLGINCSIARPKHEGDLLEVSTKTPFIPHFHGGALGDGIFKGELPDCLSDDALNALMEAVSKDELPEHVLDDALYARAGGIFQGELPDWPSDDALNDGKRFYMLKESEWQATDWISMYLELVITTTDRSITEPEVLSKLEIVKVAIETATKDEEPSNERLKAYRAHFYITFKGLAEPRAPRQVFEIGEHVERQAIVRRVMGHRGDLTLKGKLCGGQYIKRRSLALKSGEESPNCKKQTRVG”: “soluble”; for “MEENSADIENRPVAAFRPAVSVPMPVLPQDGEVFVGPGGKKDAQKIGLGLSKLSSKRKDDIQMAKKYAMDISIKQILLRQQKQQQENQQRQQMYSQALSIMSRIYVGSISFEIREDMLRRAFDPFGPIKSINMSWDPATGHHKTFAFVEYEVPEAALLAQESMNGQMLGGRNLKVNSMMFQEMRLPQNMPQAQPIIDMVQKDAKKYFRVYVSSVHPDLSETDLKSVFEAFGEIVKCQLARAPTGRGHRGFGYLEFNNLTSQSEAIAGMNMFDLGGQYLRVGKCVTPPDALTYLQPASVSAIPASVSVACAAITAKVMAAEAAAGSSPKTPSESGGSRAASPAPRAQSPATPSSSLPTDIENKAVISSPKKEPEEIEVPPLPPSAPDVVKDEPMEIEEEEEYTIPEEKPKPVAIVPPPGLAIPSLVAPPGLIAPTEIGIVVPNPSFLAQQQQKIEEKIEEEEEARTERVKLSTSQRKKMKREKLNQMTFEEKMAQVLGQQKAVQNQRMADPVTFGALDDTVAWKDPSNEDQTSEDGKMLAIMGPGRGGDNVASMALALMDGGSSLMLANNAKAKEAAAALALEPKKKKKVKEGKKIQPKLNTAQALAAAAKAGEMSDALKNEVMNSEDASLASQEGLEIRGNDARHLLMTKLMRTNRSNVIVLRNMVTPQDIDEFLEGEIREECGKYGNVIDVVIANFASSGLVKIFVKYSDSMQVDRAKAALDGRFFGGNTVKAEAYDQILFDHADYTG”: “not soluble”. The value for “GPLGSSAVTITLKTLQQQTFKIRMEPDETVKVLKEKIEAEKGRDAFPVAGQKLIYAGKILSDDVPIRDYRIDEKNFVVVMVTKTKAGQGTSAPPEASPTAAPESSTSFPPAPTSGMSHPPPAAREDKSPSEESAPTTSPESVSGSVPSSGSSGREEDAASTLVTGSEYETMLTEIMSMGYERERVVAALRASYNNPHRAVEYLLTGIPGSPEPEHGSVQESQVSEQPATEAAGENPLEFLRDQPQFQNMRQVIQQNPALLPALLQQLGQENPQLLQQISRHQEQFIQMLNEPPGELADISDVEGEVGAIGEEAPQMNYIQVTPQEKEAIERLKALGFPESLVIQAYFACEKNENLAANFLLSQNFDDE” was “soluble”; that for “MAVNLLKKNSLALVASLLLAGHVQATELLNSSYDVSRELFAALNPPFEQQWAKDNGGDKLTIKQSHAGSSKQALAILQGLKADVVTYNQVTDVQILHDKGKLIPADWQSRLPNNSSPFYSTMGFLVRKGNPKNIHDWNDLVRSDVKLIFPNPKTSGNARYTYLAAWGAADKADGGDKGKTEQFMTQFLKNVEVFDTGGRGATTTFAERGLGDVLISFESEVNNIRKQYEAQGFEVVIPKTNILAEFPVAWVDKNVQANGTEKAAKAYLNWLYSPQAQTIITDYYYRVNNPEVMDKLKDKFPQTELFRVEDKFGSWPEVMKTHFTSGGELDKLLAAGRN” was “soluble”; that for “MGSDKIHHHHHHMSTARLVLLGGFLGAGKTTTMIKSALKLEKEGYRVAIVTNDQGKELIDTELARANGLESKEVTGGCFCCQFDDLYNNLNTLMKEKQPDVIIAEAVGSCTDLAATVIQPLKQYYADKFKTAPLTIVVEPARLLHELNLDENTKPFFSQSVSYIFEKQLAEADIIALNKVDRYSEEEIAKLKAYLQQRYPQTIIQTFSAERGDNLEALTHTWLTTDLGGDKVLDIDYELYAEGEAQLAWMNILGDIKAEQDINPREWAEKLLDNLNKHFIREKMAIAHLKVHVGFEGGYVKASMVQTGDAPTFTVENVKEGKEFRIVLNIRIEATPAILNLVVADSIGAINKELGSNWSETYNECFSPLPPKPVHRLYETV” was “not soluble”. The value for “SNAMAAKKPLFEVIASKIKDSINRDEYKTGMLMPNETALQEIYSSSRTTIRRAVDLLVEEGLVVRKNGVGLYVQPKLTAQNILEMTGVMKNDTNENLKKDIKDFYIRKAGKFYAEIFGMKENELVYSIKFVQKSEHGATLDRLILPLGLYPDLQAKDFQIINIIELVNSGKYKLFELEQELQLILAGNEQIKNMHLNENDPVFKLSSVFYAENDMPIAIQYHYEDAESTKYVVDFN” was “soluble”; that for “MGSSHHHHHHSSGLVPRGSHMEPAATTYGTSTSVGVHNAYEKEKYRYFADALDSGAALLELDLWSNALGRSWRVSHSNPLGNNSNCEGAANASELRTKSRDQDFAGCLSDMRAWHDAHPGHRPILLKIEMKDGFNAKGGRGPAEFDALIRQKLGDAVYGPGDLTGGHATADEAVRAGGWPSRADLAGKFLFELIPGTVEEKNPFDKLWTDVEYAGHLKDLAAQGKLAQSTAFPAVHGAAPGDPRERYADPALRPWFVVFDGDAATYLNGSIDTSWYDTRHYLLIMTDAHNVPPVIDGTHPTEAEALARVRQLAAAHASFATADWYPLPSVLKTVVPRGA” was “soluble”. For the sequence “MGSDKIHHHHHHMAAKGKKKNFVLDTNVMLHDYECIEKFEENDIYIPIVSLEELDKFKKGSEQINFNARAFVRRLDEISDQDLFAKGASLGEGLGRIFVKINGQYHTKVKEAFGENKADHRILSIAMTLADEQPNIKTILVTKDVNLRMKARSLGMLVEDYINDKVTRVDLFENAEPEYEGVDGDLIDRIYASKDGIDIDEWELGSKIDPNDCFVMKSERNSVLARYNPFTGKIVRVEKGHYFGIQPRNAEQTFAMHILTDPNVKLIGLTGKAGTGKTLLALAAALSQEQSYKQILLARPIVSLANKDLGFLPGDEKAKVAPYMQPLFDNLNVIKGQLAQNSSELRRLDEMQKTEKLVIEALAYIRGRSVSETIFIVDEAQNLTPHEIKTIITRAGEGSKLIFTGDIEQIDSPYLDAQSNGLAYMIERMKGQPLFAHVNLIKGERSELSELASDLL”, the “soluble on expression in E. coli” value was “not soluble”. The same measure for “MSLTKPIIGITANVRPNPAHEDIKWSYAPSGFVEGVQKAGGLAILLPVSDPLEAKTYISMIDKLILIGGQNIDPKFYNEENHACEDDFFLERDLFEMALIEEATKQKKPIFSICRGTQLMNVALGGSLHQDIKRHWQDKPSDYLYHEIIIDKNSKLAEIYGLETSINSFHHQSIKHLASDLRVIARDPEDNTVEAIESNTPDLRYLGVQWHPELLLNKREEDLKLFEYVVDELEGHHHHHH”: “soluble”; for “MNLVKLLANNWQPIAIIALVGTGLAVSHHQGYKSAFAKQQAVIDKMERDKAQALLLSAQNYARELELARAEAKKYEVKAHAVGMALAKKQAEVSRLKTERDLCKIPFPPDSRNPNTGFRLFSPQIPPNFTQIPP”: “not soluble”. The value for “MIRELVTTAAITGAAIGGAPVAGADPQRYDGDVPGMNYDASLGAPCSSWERFIFGRGPSGQAEACHFPPPNQFPPAETGYWVISYPLYGVQQVGAPCPKPQAAAQSPDGLPMLCLGARGWQPGWFTGAGFFPPEP” was “soluble”.

In the case of “MSLQLKSEKARIILSGEPTLLIDKGKIDISALKSQRLNINDLMEELRLKNYFNVEDIEYAILETSGQISLIPKTHLTNATKEDLNLKVKQENVPITIILDGKVNTDNIKYLNKDADWLMKELKKNKIDSPKDVFLALIDSKGKFYYQKYNNEGHHHHHH”, the “soluble on expression in E. coli” value is given as “not soluble”. As for “SNAMEKYILSIDQGTTSSRAILFNQKGEIAGVAQREFKQYFPQSGWVEHDANEIWTSVLAVMTEVINENDVRADQIAGIGITNQRETTVVWDKHTGRPIYHAIVWQSRQTQSICSELKQQGYEQTFRDKTGLLLDPYFAGTKVKWILDNVEGAREKAENGDLLFGTIDTWLVWKLSGKAAHITDYSNASRTLMFNIHDLEWDDELLELLTVPKNMLPEVKASSEVYGKTIDYHFYGQEVPIAGVAGDQQAALFGQACFERGDVKNTYGTGGFMLMNTGDKAVKSESGLLTTIAYGIDGKVNYALEGSIFVSGSAIQWLRDGLRMINSAPQSESYATRVDSTEGVYVVPAFVGLGTPYWDSEARGAIFGLTRGTEKEHFIRATLESLCYQTRDVMEAMSKDSGIDVQSLRVDGGAVKNNFIMQFQADIVNTSVERPEIQETTALGAAFLAGLAVGFWESKDDIAKNWKLEEKFDPKMDEGEREKLYRGWKKAVEATQVFKTE”, the “soluble on expression in E. coli” value is recorded as “soluble”. The value for “MSLTIQMKNTGKRIDLIANRKPQSQRVLYELRDRLKRNQFILNDTNPDIVISIGGDGMLLSAFHKYENQLDKVRFIGLHTGHLGFYTDYRDFELDKLVTNLQLDTGARVSYPVLNVKVFLENGEVKIFRALNEASIRRSDRTMVADIVINGVPFERFRGDGLTVSTPTGSTAYNKSLGGAVLHPTIEALQLTEIASLNNRVYRTLGSSIIVPKKDKIELIPTRNDYHTISVDNSVYSFRNIERIEYQIDHHKIHFVATPSHTSFWNRVKDAFIGEVDEEGHHHHHH” was “soluble”; that for “MTAYAKWSSCFQNGIDSWNNLTTTAEFLNHAGNISSNCKIILDLNIVKLSDSKFYISPQVQKSLTHATVGISSNFEAESQLKKVLELSSHHFLICQLFQRLPIINIFGATPKLSERERELFQKIGNYYPVAIGTKSGLVNVTMKPQYNYSLNDSAVPSSKSEFQLDLIYFLKDVLKQDFYYSIWFNIFFDELPNMLHRNRNFDENRITLCQININIDNDQKTNMKQFFKSLISDKRYVIIFEVVNDYGVLFLINFDNTTCRKKLGIVRNV” was “not soluble”. Turning to “MAFKSDVIFEEIKERIATDKEMVKKVGTSFRMTIAGADGKTKVWTIDAKSDTPYVGDDSSRPVEIEINIKDSDFIAIAAGKMKPDQAFMQGKMKLKGNIAKAMKLRTILDPKMLKAKL”, the “soluble on expression in E. coli” value is “soluble”. The value for “MGSDKIHHHHHHMKVSEFDYELPPELIAQEPVEPRDASRLMVLHRKTQRIEHRIFREIIEYLEPGDLLVLNVSKVIPARLYARKKTGASIEILLIERLEEGIWKCLVRPGQKVKKGTELVIDEDLSAVCLGRGEDGTRILKFQPQDDRLIFEKGRTPLPPYIKNEVPLERYQTVYAKEEGSVAAPTAGLHFTPELIEKLKKKGVQFAEVVLHVGIGTFRPVKVEEVEKHKMHEEFYQVPKETVRKLRETRERGNRIVAVGTTTVRTLETIARLPEQEEYVGKTDLFIYPPFEFKLVDALVTNFHLPRSTLLMLVAAFAGKDFVMEAYREAVKRRYRFFSFGDAMLIL” was “soluble”.

The values above are taken from the DeepSol protein solubility set.
